From the nanobody polyreactivity screen of Harvey et al. (2022)

Test: yeast display, Sf9 membrane polyspecificity reagent, FACS + sequencing; frameworks hold sequencing errors
Outline: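 Galactose-induced (36–48 hours) yeast carrying a synthetic nanobody display library were exposed to 10% biotinylated, detergent-solubilized Sf9 membrane reagent at 4 °C for 1 hour. FACS followed streptavidin microbead enrichment, using low and high (top ~1%) gates for expression (anti-HA) and reagent binding (streptavidin). Colony PCR, MiSeq 2 × 250 sequencing and CDR-length filtering followed. Labels for polyreactivity reflect the gate of origin.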

Row | Sequence | polyreactivity (PSR sort gate)
1 | QVHLVESGGGLVQAGGSLRLSCAASGFTFIRYAMGWYRQAPGKETELVAAISVSGGRTYYADSVKGRFTISRDNAKNTVYLQMNSLKPEDTAVYYCARRPSYYQGDYWGQGTQVTVSS | high polyreactivity
2 | QVHLVESGGGLVQAGGSLRLSCAASGFTFNWYAMGWYRHAPGKERELVAAINSSGGNTYYADSVKGRFTISRDNAKNTVYLQMNSLKPEDTAVYYCAALLWGYVAFDYWGQGTQVTVSS | high polyreactivity
3 | QVHLVESGGGLVQAGGSLRLSCAASGFTFPEYYMGWYRQAPGKESELVAAINYSDGRTFYADSVKGRFTISRDNAKNSVYLQMNSLKPEDTAVYYCASDLSYDVWFFGPDYDYSGQGTQVTVSS | low polyreactivity
4 | QVHLVESGGGLVQAGGSLRLSCAASGFTFRDYAMGWYRQAPGKERELVAAIDIGTTTYYADSVKGRFTISRDNAKNTVYLQMNSLKPEDTAVYYCAAYSFASVYFGTGYDYWGQGTQVTVSS | low polyreactivity
5 | QVHLVESGGGLVQAGGSLRLSCAASGFTFRYYAMGSYRQAPGKERELVASIRRIGGSTYYADSVKGRFTISRDNAKNTVYLQMNSLKPDDTAVYYCAASTNFYYNPEYDSWGQGTQVTVSS | low polyreactivity
6 | QVHLVESGGGLVQAGGSLRLSCAASGFTFTRYAMGWYRQAPGKERELVAAISFSGGSTYYADSVKGRFTISRDNAKNTVYLQMNSLKPEDTAVYYCAGRWSVSYQYWGQGTQVTVSS | high polyreactivity
7 | QVHLVESGGGLVQAGGSLRLSCAASGFTFYYYAMGWYRQAPGKERELVAAISDSGGITYYADSVKGRFTISRDNAKNTVYLQMNSLKPEDTAVYYCAADFATPGPEYDYWGQGTQVTVSS | low polyreactivity
8 | QVHLVESGGGLVQAGGSLRLSCAASGFTLFGYAMGWYRQAPGKERELVAAISKDGGSTYYADSVKGRFTISRDNAKNTVYLQMNSLKPEDTAVYYCAARVKRPQTGYDRRYGYWGQGTQVTVSS | high polyreactivity
9 | QVHLVESGGGLVQAGGSLRLSCAASGIIFGHYDMGWYRQAPGKERELVAAITFTGDSTYADSVKGRFTISRDNAMNTVYLQMNSLKPEDTAVYYCNASVKPSNVWSRGYDYWGQGTQVTVSS | low polyreactivity
10 | QVHLVESGGGLVQAGGSLRLSCAASGIIFGVYAMGWYRQATGKESELVAAIDGNGSSTYYADSVKGRFTISRDNAKNTVFLQMNSLKPEDTAVYYCAAGYWSYLYYWYDFDYWGQGTQVTVSS | low polyreactivity
11 | QVHLVESGGGLVQAGGSLRLSCAASGIIFRHKAMLWYRQAPGKERELVAAISSGGNTYYADSVKGRFTISRDNAKNTVYLLMNSLKPEDTAVYYFADDVQDRYHRAWYDSWGQGRQVTVSS | low polyreactivity
12 | QVHLVESGGGLVQAGGSLRLSCAASGIIFYFYTMGWYRQAPGKERELVAAISSSGGRTFYADSVKGRFTISRDNAKNTDYLQMNSLKPEDTAVYYCAAAHTREYYWGQGTQVTVSS | high polyreactivity
13 | QVHLVESGGGLVQAGGSLRLSCAASGIIFYLYAMGRYRQAPGKERELVAGITSGGDTKYADSVKGRFTISRDNAKNTVYLQMNSLKPEDTAVYYCATDSGSVWQRWGYANYDYWGQGTQVTVSS | low polyreactivity
14 | QVHLVESGGGLVQAGGSLRLSCAASGIIFYRYAMGWYRQAPGKERELVAAISWRGTSTYYADSVKARFTISRDNANNTVYLQMNSLKPEDTEVYYCNAGVRRKYGEYYYWGQGTQVTVSS | high polyreactivity
15 | QVHLVESGGGLVQAGGSLRLSCAASGITFGRNTMGWSRQAPGKERELVDAIDSCGNTYADSVKGRFTISRDNAKNTVYLKMNIVNPEDTAVYYCAVDGGEFSSYGEWGQGTQVTVAS | low polyreactivity
16 | QVHLVESGGGLVQAGGSLRLSCAASGITFYYYAMGWYRQAPGKERELVAAIDTDGSTYYADSVKGRFTVSRDNAKNTVYLQMNILKPEDTAVYYCAAVIEYYPYSGYIYDYWGQGSQVTVSS | high polyreactivity
17 | QVHLVESGGGLVQAGGSLRLSCAASGLIFLAYAMGWYRQAPGKERELVAAISTSGSTYYADSVKGRFTISRDNAKNTVYLQMNSLKPEDTAVYYCAAYDRWSVTYYYWGQGTQVTVSS | high polyreactivity
18 | QVHLVESGGGLVQAGGSLRLSCAASGLIFYFYAKGWYRQAPGKERELVAGITNGGSTNYADSVKGRFTISRDNAKNTVYLQMNSLKPEDTAVYYCAAQYYTVRSTYDYWGQGTQVTVSS | high polyreactivity
19 | QVHLVESGGGLVQAGGSLRLSCAASGLTFAWSAMGWYRPAPGKEREWVAAITSSGSRTYYADSVKGRFTISRDNAKNTVYLQMNSLKPEDTAVYYCAAPSRYRPTKGYPYYYWGQGTQVTVSS | high polyreactivity
20 | QVHLVESGGGLVQAGGSLRLSCAASGLTFLYNTMGWYRQAPGKEREFVAAITISGGTTYYADSVKGRFTISRDNAKNTVYLQMNSLKREDTAVYYCAADYNSTERGTNMDYWGQGTQVTVSS | low polyreactivity
21 | QVHLVESGGGLVQAGGSLRLSCAASGNIFGLYAMGWYRQAPGKERELVAAIRWIGGRTYYADSVKGRFTISRDNAKNTVYLQMNSLKPEDTAVYYCNAEYIVYYRGYDYWGHGTQVTVSS | high polyreactivity
22 | QVHLVESGGGLVQAGGSLRLSCAASGNTFYKYTMGWYRQAPGKERELVAVISSSSGSTYYADSVKGRFTISRDNAMNTVYLQMNSLKPEDTAVDYCNKRGWWDLRHDYWGQGTQVTVSS | low polyreactivity

Row | Sequence | polyreactivity (PSR sort gate)
23 | QVHLVESGGGLVQAGGSLRLSCAASGRIFGDNAMGWYRQAPGKERELVAAITVNAGSTHYADSVKGRFTISRDNAKNTDYLQMNSLKPEDTAVYYCAKQTAPVTGVGPYYYWGQGTQVTVSS | low polyreactivity
24 | QVHLVESGGGLVQAGGSLRLSCAASGRIFGYNAMGWYRQAPGKERELVAAITGSRGSTYYADSVKGRFTFSRDTAKNTVYLQLNSLKPEDTAVYYCNAPGNHWGDWGHGTQVTVSS | low polyreactivity
25 | QVHLVESGGGLVQAGGSLRLSCAASGRIFGYYAMGWYRQAPGKVRELVAAIRRSGGSTYADSVKGRFTISRDNAKNTVYLQMNSLKPEDTAVYDCAAGHYWTSPYRVLSYSYWGQGTQVTVSS | high polyreactivity
26 | QVHLVESGGGLVQAGGSLRLSCAASGRIFSLNAMGCDRQAPGKERELVAAISTGGASTYYADSVKGRFTISRDNAKNTVYLQMNSLKPEDTAVYSCAADLGYEYDYWGQGTQVTVSS | high polyreactivity
27 | QVHLVESGGGLVQAGGSLRLSCAASGRIFSRNAMGWYRQAPGKERELVASITRGGSTYYADSVKGRFTISRDNAKITVYLQMNSLKPEDTAVYYCAAVFYDRGQRYNYWGQGTQVTVSS | high polyreactivity
28 | QVHLVESGGGLVQAGGSLRLSCAASGRIFTYYAMGWYRQAPGKERELFAGISRSGTSSYYADSVKGSFTISRDNAKNTVYLQMNSLKPEDTAVYYCAADVFRDDVWLDYWGQGTQVTVSS | low polyreactivity
29 | QVHLVESGGGLVQAGGSLRLSCAASGRIFYANARGWYRQAPGKERELVAAISQSGGSTFYADSVKGRFTISRDYAKNTVYLQMNSLKPEDTAVYYCATDYYGPVYDLDYDYWGQGTQVTVSS | low polyreactivity
30 | QVHLVESGGGLVQAGGSLRLSCAASGRIFYANDMGWYRQAPGKERELVAAITNTVSTTYADSVKGRFTISRDNAKNTVYLQMNSLKTEDTAVYYCNADDPYVPKADMGYWGQGTQVTVSS | low polyreactivity
31 | QVHLVESGGGLVQAGGSLRLSCAASGRIFYAYAMGWYRPAPVKERELVAAITWSGGSTYYADSVKGRFTISRDNAKNTVYLQMNSLKPEDTAVYYCAADLRVKYVHTYSYVWYRYDYWGQGTQVTVSS | high polyreactivity
32 | QVHLVESGGGLVQAGGSLRLSCAASGRIIGKYAMGWYRQPPGKERELVAAITWSGGNTYYADSVKGRFTISRDNAKNTVYLQMNSLKPEDTAVYYCAASVPGKSHKDGYWGQGSQVTVSS | high polyreactivity
33 | QVHLVESGGGLVQAGGSLRLSCAASGRIINYYDMGWYRQAPGKERELVAAISRSGGRTYYADSVKGRFTISRDNAKNTVYLQMNSLKPEDNAVYYCAASDYQRYQPTPQYTYYYWGQGTQVTVSS | high polyreactivity
34 | QVHLVESGGGLVQAGGSLRLSCAASGRILGDYAMGWYRQAPGKEREFVAAIDYNGGSTNYADSVKGRFTISRDNAKNTVYLQMNSLKPEDTAVYYCAAPGFPSRNGFGYWGQGTQVTVSS | low polyreactivity
35 | QVHLVESGGGLVQAGGSLRLSCAASGRILSLYAMGWYRQAPGKERELVASINWSDGSTYYADSVKGRFTISRDNAKNTVYLQMNSLKPEDTAVYYCNVDVSSYVAGYDYWGQGTQVTVSS | low polyreactivity
36 | QVHLVESGGGLVQAGGSLRLSCAASGRNFGYYARGWYRQAPVKERELVAAIDSSGGDTYYADSVKGRFTISRDNAKNSVYVQMNSLKPEDTAVFYCAAEYVAQAGYGVDYWGQGTEVTVSS | low polyreactivity
37 | QVHLVESGGGLVQAGGSLRLSCAASGRTFDLNAMGWYRQAPGKERELVAGISSSGGRTYYADSVKGRFTISRDNAKNTVYLQMNSLIPEDTAVYYCAKVYPSYVLRKYDYWGQGTQVTVSS | high polyreactivity
38 | QVHLVESGGGLVQAGGSLRLSCAASGRTFFQYAMGWYTQAPGKERELVAAIRWSDSTYYADSVKGRFTISRDNAKNTVYLQMNSLKPEDTAVYYCAKTYRYYRTMDYWGQGTQVTVSS | low polyreactivity
39 | QVHLVESGGGLVQAGGSLRLSCAASGRTFGWNVMGWYRPAPGKERELVAAISGSGGSTYYADSVKGRFTISRDNAKNPVYLQMNSLKPEDTAVYYCAALYGPGREYDYWGQVTQVTVSS | low polyreactivity
40 | QVHLVESGGGLVQAGGSLRLSCAASGRTFIFYAMRWYRQAPGKERELVATISRSAGSTYYADSVKGRFTISRDNAKNTVYLQMNSLKPEDTAVYYCATQSRHYRGGKYYYWGQGTQVSVSS | high polyreactivity
41 | QVHLVESGGGLVQAGGSLRLSCAASGRTFIGNAMGWYRQATGKERELVAGITWSGGRSYYADSVKGRFTISRDNAKNTVYLQMNSQKPEDTAVYYCGRAGQSSRMNYWGQGTQVTVSS | high polyreactivity
42 | QVHLVESGGGLVQAGGSLRLSCAASGRTFSAYAMGWYRQAPGKEREDVAAISRSGGSTYYADSVKGRFPISRDNAKNTVYLQMNILTPEDTAVSDCAVRWPSARIPVKLEDWGQGTQVTVSS | high polyreactivity
43 | QVHLVESGGGLVQAGGSLRLSCAASGRTFVQYAMGWSRQAPGTERELVAVISNGGTTYYADSVKGRFTISRDNAKNTVYLQMNSLKPEDTAVYYCAAKIITRRGGRYDYWGQGTQVTVSS | high polyreactivity
